# Data reported in PMC5381662 (Cell reports, 2016).
# Where a chain is given by its changes, count along the chain named. Numbers in names are those of the source. Where two headings read alike, the source gives them in different places.
# B1: GST-tagged RAD51AP1 (natural protein, UniProt Q96B01-2 1-335, looked up)
# chain: MVRPVRHKKPVNYSQFDHSDSDDDFVSATVPLNKKSRTAPKELKQDKPKPNLNNLRKEEIPVQEKTPKKRMALDDKLYQRDLEVALALSVKELPTVTTNVQNSQDKSIEKHGSSKIETMNKSPHISNCSVASDYLDLDKITVEDDVGGVQGKRKAASKAAAQQRKILLEGSDGDSANDTEPDFAPGEDSEDDSDFCESEDNDEDFSMRKSKVKEIKKKEVKVKSPVEKKEKKSKSKCNALVTSVDSAPAAVKSESQSLPKKVSLSSDTTRKPLEIRSPSAESKKPKWVPPAASGGSRSSSSPLVVVSVKSPNQSLRLGLSRLARVKPLHPNATST
# B2: RAD51AP1 (no tag named) (natural protein, UniProt Q96B01-2 1-335, looked up)
# chain: B1 chain
# B3: RAD51AP1 1-145 fragment (domain or fragment, UniProt Q96B01-2 1-145, looked up)
# chain: MVRPVRHKKPVNYSQFDHSDSDDDFVSATVPLNKKSRTAPKELKQDKPKPNLNNLRKEEIPVQEKTPKKRMALDDKLYQRDLEVALALSVKELPTVTTNVQNSQDKSIEKHGSSKIETMNKSPHISNCSVASDYLDLDKITVEDD
# B4: RAD51AP1 fragment, amino acid residues 95-187 (domain or fragment, UniProt Q96B01-2 95-187, looked up)
# chain: TVTTNVQNSQDKSIEKHGSSKIETMNKSPHISNCSVASDYLDLDKITVEDDVGGVQGKRKAASKAAAQQRKILLEGSDGDSANDTEPDFAPGE
# B5: RAD51AP1 H329A mutant (natural protein, UniProt Q96B01-2 1-335, looked up)
# chain: B1 chain with H329A
# B6: RAD51AP1 ΔN25 mutant (domain or fragment, UniProt Q96B01-2 26-335, looked up)
# chain: VSATVPLNKKSRTAPKELKQDKPKPNLNNLRKEEIPVQEKTPKKRMALDDKLYQRDLEVALALSVKELPTVTTNVQNSQDKSIEKHGSSKIETMNKSPHISNCSVASDYLDLDKITVEDDVGGVQGKRKAASKAAAQQRKILLEGSDGDSANDTEPDFAPGEDSEDDSDFCESEDNDEDFSMRKSKVKEIKKKEVKVKSPVEKKEKKSKSKCNALVTSVDSAPAAVKSESQSLPKKVSLSSDTTRKPLEIRSPSAESKKPKWVPPAASGGSRSSSSPLVVVSVKSPNQSLRLGLSRLARVKPLHPNATST
# Legend:
# Assay in all cases: pull-down
# [1] = biological target: Strep II-tagged UAF1 K595E (UniProt Q8TAF3 1-677, K595E)
# Sequence of Strep II-tagged UAF1 K595E (Q8TAF3 whole entry K595E): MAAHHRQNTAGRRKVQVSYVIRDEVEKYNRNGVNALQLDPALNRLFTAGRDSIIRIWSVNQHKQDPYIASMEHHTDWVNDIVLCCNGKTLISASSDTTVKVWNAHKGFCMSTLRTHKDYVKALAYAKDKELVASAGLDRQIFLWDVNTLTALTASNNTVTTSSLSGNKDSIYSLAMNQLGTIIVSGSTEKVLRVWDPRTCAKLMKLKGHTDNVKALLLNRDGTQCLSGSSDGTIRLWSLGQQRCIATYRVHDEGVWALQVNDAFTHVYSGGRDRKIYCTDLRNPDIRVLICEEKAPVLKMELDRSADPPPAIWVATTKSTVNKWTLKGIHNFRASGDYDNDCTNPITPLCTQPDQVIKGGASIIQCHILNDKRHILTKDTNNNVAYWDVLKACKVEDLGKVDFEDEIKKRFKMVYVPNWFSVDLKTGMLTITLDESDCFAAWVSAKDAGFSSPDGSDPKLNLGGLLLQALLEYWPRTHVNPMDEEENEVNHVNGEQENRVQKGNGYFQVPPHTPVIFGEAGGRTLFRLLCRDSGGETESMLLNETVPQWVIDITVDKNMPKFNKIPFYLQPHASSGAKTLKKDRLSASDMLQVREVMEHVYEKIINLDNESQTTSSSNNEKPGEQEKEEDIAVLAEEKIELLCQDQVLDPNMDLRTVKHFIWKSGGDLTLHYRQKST
# [2] = biological target: Strep II-tagged UAF1 H599A (UniProt Q8TAF3 1-677, H599A)
# Sequence of Strep II-tagged UAF1 H599A (Q8TAF3 whole entry H599A): as the sequence (Q8TAF3 whole entry K595E) above, with E595K, H599A counted along it
# [3] = biological target: Strep II-tagged UAF1 K459E (UniProt Q8TAF3 1-677, K459E)
# Sequence of Strep II-tagged UAF1 K459E (Q8TAF3 whole entry K459E): as the sequence (Q8TAF3 whole entry K595E) above, with K459E, E595K counted along it
# Strep II-tagged UAF1 [4] = biological target: T1, Strep II-tagged UAF1 (UniProt Q8TAF3 1-677)
# T1 sequence (Q8TAF3 whole entry): as the sequence (Q8TAF3 whole entry K595E) above, with E595K counted along it
# [5] = biological target: Strep II-tagged UAF1 K595E/H599A double mutant (UniProt Q8TAF3 1-677, K595E | H599A)
# Sequence of Strep II-tagged UAF1 K595E/H599A double mutant (Q8TAF3 whole entry K595E/H599A): as the sequence (Q8TAF3 whole entry K595E) above, with H599A counted along it
# Strep II-tagged UAF1 [6] = biological target: T1, Strep II-tagged UAF1; remark: listed apart in the source
# RAD51 = biological target: T2, RAD51 (UniProt Q06609 1-339)
# T2 sequence (looked up): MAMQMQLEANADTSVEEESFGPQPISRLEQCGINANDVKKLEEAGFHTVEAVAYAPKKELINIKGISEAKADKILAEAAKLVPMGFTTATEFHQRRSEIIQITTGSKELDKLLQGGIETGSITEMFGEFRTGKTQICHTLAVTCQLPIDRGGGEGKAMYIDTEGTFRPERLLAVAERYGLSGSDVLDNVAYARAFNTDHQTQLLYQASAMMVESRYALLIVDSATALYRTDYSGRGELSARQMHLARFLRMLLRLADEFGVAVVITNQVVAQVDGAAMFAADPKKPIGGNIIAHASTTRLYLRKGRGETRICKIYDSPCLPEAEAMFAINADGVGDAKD
# Strep II-tagged UAF1 [7] = biological target: T1, Strep II-tagged UAF1; remark: listed apart in the source
binder,measurement,setting,value
B1,binding result,[1],binds
same,binding result,[2],binds
same,binding result,[3],binds
same,binding result,Strep II-tagged UAF1 [4],binds
same,binding result,[5],binds
B2,binding result,Strep II-tagged UAF1 [6],binds
same,binding result,RAD51,binds
B3,binding result,Strep II-tagged UAF1 [7],binds
B4,binding result,Strep II-tagged UAF1 [7],binds
B5,binding result,Strep II-tagged UAF1 [7],binds
B6,binding result,Strep II-tagged UAF1 [7],binds
